Measured values published in patent publication US20240101708A1 (Genentech, published 2024).

T1: recombinant human ZNRF3 extracellular domain (human, UniProt Q9ULT6 56-219)
T1 construct: extracellular domain; also called huZNRF3; human ZNRF3 ECD
T1 sequence (looked up): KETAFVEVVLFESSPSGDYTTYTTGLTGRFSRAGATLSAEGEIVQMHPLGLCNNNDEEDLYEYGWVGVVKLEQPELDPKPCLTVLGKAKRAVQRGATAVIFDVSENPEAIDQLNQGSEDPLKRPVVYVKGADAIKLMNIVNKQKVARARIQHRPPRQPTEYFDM

T2: recombinant human RNF43 extracellular domain (human, UniProt Q68DV7 24-197)
T2 construct: extracellular domain; also called huRNF43; human RNF43 ECD
T2 sequence (looked up): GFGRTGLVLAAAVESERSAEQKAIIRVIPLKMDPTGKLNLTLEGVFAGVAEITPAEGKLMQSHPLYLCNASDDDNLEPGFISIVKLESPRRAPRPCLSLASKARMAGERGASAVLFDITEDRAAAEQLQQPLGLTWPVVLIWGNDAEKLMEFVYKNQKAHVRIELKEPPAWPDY

B1: ZNRF3-163 (antibody, V domains shown)
VH: EVQLEESGGGLVQPGRSMKFSCAASGFTFSNYYMAWVRQAPSKGLEWVASISTGGGDVYYRDSVKGRFTISRDNAKSTLYLQMDSLRSEDTATYYCARHSGGRIRARGHYFDYWGQGVMVTVSS
VL: DIQMTQSPASLSASLGETVSIECLASEDISNDLAWYQQKSGKSPQVLIYGVSRLQDGVPSRFSGSGSGTRYSLKISGMQPEDEADYFCQQSYKYPYTFGAGTKLELK
notes: Rat clone; VH/VL only
B2: ZNRF3-90 (antibody, V domains shown)
VH: EVQLVESGGGLVQPGRSMKLSCAASGFTFSNYYMAWVRQAPRKGLEWVASITTGGTNTYYRDSVRGRFTISRDNAKSTLYLQMDSLRSEETATYYCARHSGGLIRARGHYFHYWGQGVMVTVSS
VL: DIQMTQSPASLSASLGEIVSIECLASEGISNDLAWYQQKSGKSPQVLVYAASRLQDGVPSRFSGSGSGTRYSLKISGMQPEDEADYFCQQSYTYPYTFGAGTKLELK
notes: Rat clone; VH/VL only
B3: ZNRF3-17 (antibody, V domains shown)
VH: EVQLVESGGGLVQPGGSLKLSCAASGFTFSNYDMAWVRQAPTKGLEWVASISTGGGKTYYRDSVKGRLTISRDNAKNTQYLQMDSLRSEDTATYYCARLGPAYSGEWFAYWGQGTLVTVSS
VL: DTVLTQSPALAVSPGERVTISCGASEGVNTRMHWYQQRSGQQPKLLIYGSSNLDSGVPDRFSGSGSGTDFTLTIDPVEAKDAATYFCQQSWNVPNTFGAGTKLELK
notes: Rat clone; VH/VL only
B4: ZNRF3-55 (antibody, V domains shown)
VH: EVHLVESGGGLVQPGGSLKLSCAASGFTFSNYDMAWVRQAPTRGLEWVASISPGGGKTYYRDSVKGRLTISRNNAENTQYLQIDSLRSEDTATYYCSRLGPAYSGEWFAYWGQGTLVTVSS
VL: DTVLTQSPALTVSPGDKITISCRASEGVNTRIHWYQQKSGQQPKLLIYGASNLDSGVPDRFSGSGFGTDFTLTIDPVEASDTATYFCQQSWNVPHTFGGGTKLELK
notes: Rat clone; VH/VL only
B5: ZNRF3-195 (antibody, V domains shown)
VH: EVQLVESGGGLVQPGNSLNLSCSASGFPFSTYGMHWIRQAPGKGLDWVAYISYNSGTVYADAVKGRFTISRDNAKNTLYLQLNSLKSEDTAIYYCARGYYDGYYRYWGQGVMVTVSS
VL: DIVMTQSPFSLAVSEGEMVTINCKSSQSLLSSGNQKNYLAWYQQRPGQSPKLLIYHASTRQSGVPDRFIGSGSGTDFTLTISDVQAEDLADYYCLQHYSSPTFGSGTKLEIK
notes: Rat clone; VH/VL only
B6: ZNRF3-6 (antibody, V domains shown)
VH: EVQLVESGGGLVPPGKSLKLSCSASGFPFSNYGMHWIRQAPGKGLDWVGYISSNSGTIYADAVKGRFTISRDNAKNTLYLLINSLKSEDTAMYYCARGYFDGYYRFWGQGVMVTVSS
VL: DIVMTQSPFSLAVSEGDMVTIMCRSSQSLLSSGNQKNYLAWYQQKPGQSPKLLIYHASTRQSGVPDRFIGSGSGTDFTLTISDVQAEDLADYYCLQHYSSPTFGSGTKLEIK
notes: Rat clone; VH/VL only
B7: ZNRF3-128 (antibody, V domains shown)
VH: EVQLVESGGGLVQPGKSLKLSCSASGFTFSSYGMHWIRQAPGKGLDWVAYISTNSATVYADAVKGRFTISRDNAKNTLYLQLNSLKSEDTAIYYCARSGYTTYMPFTYWGQGTLVTVSS
VL: DVLMTQTPVSLPVSLGGQVSISCRSSQSLVHSDGNTYLHWYLQKPGQSPQLLIYRVSNRFSGVSDRFSGSGSGTDFTLKISRVEPDDLGIYYCLQTTHFLTWTFGGGTKLELK
notes: Rat clone; VH/VL only
B8: ZNRF3-117 (antibody, V domains shown)
VH: EIQLQESGPGLVKPSQSLSLTCSVTGYTITSDYDWSWIRKFPGNKMEWMGYINYSGSTNYNPSLKSRISFTRDTSKNQFFLQLNSITTDDTATYYCARYGPYYGFSDWYFDFWGPGTMVTVSS
VL: DVQMTQSPSYLAASPGESVSISCKASQSISNYLAWYQQKPGKTYRLLIYSGSTLQSGTPSRFSGSGSGTDFTLTIRSLEPEDFGLYYCQQYYEKPLTFGSGTKLEIK
notes: Rat clone; VH/VL only
B9: ZNRF3-333 (antibody, V domains shown)
VH: QSLEESGGGLVQPEGSLTLTCTASGIDFSARSYMCWVRQAPGKGLEWVACIYTGSSGSTYYANWAKGRFTISKTSSTTVTLRMTSLTAADTASYFCARGAYVGYGFAAYFTLWGPGTLVTVSS
VL: DIVMTQTPASVEAAVGGTVTINCQASQSISSYLAWYQQKPGQPPKLLIYYASNLESGVPSRFKGSGSGTQFTLTISDLECADAATYYCQAYYSSITGWAFGGGTEVVVK
notes: Rabbit clone; VH/VL only
B10: ZNRF3-172 (antibody, V domains shown)
VH: EVQLAESGGGLEQPGRSLKLSCAASGFTFSNYDMAWVRQAPTKGLEWVASIIASGGTTYYRDSVKGRFTVSRDNAKSTLYLQMDSLRSEDTATYYCARHGVGSYDWFADWGQGTLVTVSS
VL: DIVLTQSPALAVSLGQRATISCRASQSVTISGFNLMHWYQQKPGQQPKLLIYRASNLAFGIPARFSGSGSGTDFTLTINPVQADDITTYYCQQSRKSRTFGGGTKLELK
notes: Rat clone; VH/VL only
B11: ZNRF3-30 (antibody, V domains shown)
VH: EVQLAESGGGLEQPGRSLKLSCAASGFTFSNYDMAWVRQAPTRGLEWVASILTSGGTTYYRDSVKGRFTVSRDNAKSTLYLQMDSLRSEDTATYYCARHGVGSYDWFADWGQGTLVTVSS
VL: DIVLTQSPALAVSLGQRATISCRASQSVTISGYNLMHWYQQKPGQQPKLLIYRASNLAFGIPARFSGSGSGTDFTLTINPVQADDITTYYCQQSRKSRTFGGGTRLELK
notes: Rat clone; VH/VL only
B12: ZNRF3-179 (antibody, V domains shown)
VH: EVQLAESGGGLEQPGRSLKLSCAASGFTFSNYDMAWVRQAPTKGLEWVASIITSGDTTYYRDSVKGRFTVSRDNAKSTLYLQMDSLRSEDTATYHCARHGVGSYDWFADWGQGTLVTVSS
VL: DIVLTQSPALAVSLGQRATISCRASQSVTISGYNLMHWYQQKPGQQPKLLIYRASNLAFGIPARFSGSGSGTDFTLTINPVQADDITTYYCQQSRKSRTFGGGTKLELK
notes: Rat clone; VH/VL only
B13: ZNRF3-101 (antibody, V domains shown)
VH: QVQLKESGPGLVQPTQTLSLTCTVSGFSLTSSTVSWVRQPPGKGLEWIAAISSAENTYYNSGLKSRLSISRDTSKSQVFLKMNSLQTEDTAMYFCAGGRILETLFDSWGQGVMVTVSS
VL: DIVLTQSPALAVSLGQRATISCKTNQNVDFYGKTYMHWYQQKRGQQPKLLIYLASNLASGIPARFSGRGSGTDFTLTIDPVATDDTATYYCQQTRSLPPTFGAGTKLELK
notes: Rat clone; VH/VL only
B14: ZNRF3-171 (antibody, V domains shown)
VH: QVQLHQSGTELARPGTSVKLSCKASGYTFSRFYINWVKKRPGQGLEWIGYIDPGNGGTFHSEKFKDKASLTADTSSSTAYMVLGSLAPEDSAFYFCVRGYYSSYDWFAYWGQGTLVTVSS
VL: DIQLTQSPSSMSASLGDRVSLTCQSSQGIGNYLSWYQHKPGEPPKPILYYATNLADGVPSRFSGSRSGSDYSLTISSLESEDTAIYYCLQYDEYPYTFGPGTKLELR
notes: Rat clone; VH/VL only
B15: ZNRF3-131 (antibody, V domains shown)
VH: EVQVVESGGGLVQPGRSLKVSCAASGFTFSRYGMAWVRQAPTKGLEWVASISTGGENTYYRDSVKGRFTISRDNVKNTLYLQMDSLRSEDTATYYCARHGRVLNYFDYWGQGVMVTVSL
VL: DIQMTQSPASLSASLGETVSIECLTSEDIYTYLAWYQQKPGKSPHLLIFAASRLQDGVPSRFSGSGSGTQYSLKISGMQPEDEGDYFCLQGSKFPYTFGAGTKLDLK
notes: Rat clone; VH/VL only
B16: RNF43-20 (antibody, V domains shown)
VH: REQLVESGGGLVQPEGSLTLTCKASGFDFSSNVMCWVRQAPGKGLEWIGCIYTGSGSTAYASWAKGRFTITRSTSLNTVTLQMTSLTAADTATYFCARYVSGGEYYNLWGPGTLVTVSS
VL: ALVMTQTPASVEAAVGGTVTIKCQASQSISSYLNWYQQKPGQPPKLLIYKASTLASGVSSRFKGSGSGTQFTLTISDLECADAATYYCQQGSSWNSIENIFGGGTEVVVK
notes: Rabbit clone; VH/VL only
B17: RNF43-2 (antibody, V domains shown)
VH: QSLEESGGDLVKPGASLTLTCTASGFSFSSSYYMCWVRQAPGKGLELIGCGFTGRHYTYYASWAKGRFTISKSSSTTVTLQMTSLTAADTATYFCARKSGSDYDYFDLWGPGTLVTVSS
VL: AYDMTQTPASVEAVVGGTVTIKCQASQSINSWLSWYQQKPGQRPKLLIYRASTLASGVSSRFKGSGSGTEFTLTISDLECADAATYYCQQGYVSSNINNVFGGGTEVVVK
notes: Rabbit clone; VH/VL only
B18: RNF43-128 (antibody, V domains shown)
VH: EVQLQESGPGLVKPSQSLSLTCSVTGFSITSHYKWNWIRKFPRNKLEWMGYIDNSGSTNYIPSLKSRISITRDTSKNQFFLQVNSVTTEDTATYYCARDCLDWGQGVMVTVSS
VL: DVVLTQTPPTLSATIGQSVSISCRSSQSLLHSNGNTYLHWLIQRPGQSPQLLIYLVSRLESGVPNRFSGSGSGTDFSVKISGVEAEDLGIYYCVQDTHTPWTFGGGTKLELK
notes: Rat clone; VH/VL only

biological target: T1, recombinant human ZNRF3 extracellular …; experiment: SPR Biacore 8K; antibody captured on Protein A; ZNRF3 ECD analyte; 25 C
Procedure: Antibodies were screened for binding to recombinant human RNF43 and ZNRF3 ECDs using a Biacore® 8 k instrument (GE Life Sciences). Briefly, antibodies diluted to 1 μg/ml in 1×HBSP buffer (Cytiva, BR100368) were captured on a Sensor Chip Protein A (GE Life Sciences) using a flow rate of 10 μl/minute and a contact time of 60 seconds. Binding of recombinant human RNF43 and ZNRF3 extracellular domain to the captured antibodies was analyzed at 25° C. using a single cycle kinetics method with a flow rate of 30 μl/minute, a contact time of 180 seconds and a dissociation time of 600 seconds. The concentration of recombinant human RNF43 and ZNRF3 extracellular domain in the single cycle kinetics were 0, 0.8, 4, 20, and 100 nM. Between cycles, the chip was regenerated using 10 mM Glycine HCl pH 1.5 injected for 30 seconds at 30 μl/minute. Data were evaluated using Biacore 8K Evaluation software (GE Life Sciences). Kinetic constants were obtained using a 1:1 binding model with the parameter RI set to zero. Cell surface ligase antibodies with sub-nanomolar affinities may provide advantages in certain instances, for example, in the degradation efficiency which is correlated with the durability of the ternary complex as shown in FIG. 5D.

Binder	Kd [nM]
B1	0.61
B2	0.27
B3	0.04
B4	0.02
B5	0.27
B6	0.12
B7	3.16
B8	0.2
B9	8.7
B10	0.21
B11	0.12
B12	0.11
B13	0.07
B14	1.01
B15	2.39

biological target: T2, recombinant human RNF43 extracellular …; experiment: SPR Biacore 8K; antibody captured on Protein A; RNF43 ECD analyte; 25 C

Binder	binding result
B16	no binding
B17	no binding
B18	no binding
